The values below come from patent US20240018502A1.

To fix the notation:
B1: MTSP-1 protease domain I41D/F99L/C122S/G151N/Q175S/Q192T/D217A (enzyme)
chain: VVGGTDADEGEWPWQVSLHALGQGHDCGASLISPNWLVSAAHCYIDDRGFRYSDPTQWTAFLGLHDQSQRSAPGVQERRLKRIISHPFFNDFTLDYDIALLELEKPAEYSSMVRPISLPDASHVFPAGKAIWVTGWGHTQYGGTNALILQKGEIRVINQTTCENLLPQSITPRMMCVGFLSGGVDSCTGDSGGPLSSVEADGRIFQAGVVSWGAGCAQRNKPGVYTRLPLFRDWIKENTGV
B2: MTSP-1 protease domain F97E/F99L/C122S/Q175H/Q192V/D217P (enzyme)
chain: VVGGTDADEGEWPWQVSLHALGQGHICGASLISPNWLVSAAHCYIDDRGFRYSDPTQWTAFLGLHDQSQRSAPGVQERRLKRIISHPFFNDETLDYDIALLELEKPAEYSSMVRPISLPDASHVFPAGKAIWVTGWGHTQYGGTGALILQKGEIRVINQTTCENLLPQHITPRMMCVGFLSGGVDSCVGDSGGPLSSVEADGRIFQAGVVSWGPGCAQRNKPGVYTRLPLFRDWIKENTGV
B3: MTSP-1 protease domain I41G/F97L/F99L/C122S/G151N/Q192V/D217L (enzyme)
chain: VVGGTDADEGEWPWQVSLHALGQGHGCGASLISPNWLVSAAHCYIDDRGFRYSDPTQWTAFLGLHDQSQRSAPGVQERRLKRIISHPFFNDLTLDYDIALLELEKPAEYSSMVRPISLPDASHVFPAGKAIWVTGWGHTQYGGTNALILQKGEIRVINQTTCENLLPQQITPRMMCVGFLSGGVDSCVGDSGGPLSSVEADGRIFQAGVVSWGLGCAQRNKPGVYTRLPLFRDWIKENTGV
B4: MTSP-1 protease domain I41D/F97R/F99L/C122S/Q175L/Q192T/D217I (enzyme)
chain: VVGGTDADEGEWPWQVSLHALGQGHDCGASLISPNWLVSAAHCYIDDRGFRYSDPTQWTAFLGLHDQSQRSAPGVQERRLKRIISHPFFNDRTLDYDIALLELEKPAEYSSMVRPISLPDASHVFPAGKAIWVTGWGHTQYGGTGALILQKGEIRVINQTTCENLLPQLITPRMMCVGFLSGGVDSCTGDSGGPLSSVEADGRIFQAGVVSWGIGCAQRNKPGVYTRLPLFRDWIKENTGV
B5: MTSP-1 protease domain I41E/F97S/F99L/C122S/Q175L/Q192V/D217A (enzyme)
chain: VVGGTDADEGEWPWQVSLHALGQGHECGASLISPNWLVSAAHCYIDDRGFRYSDPTQWTAFLGLHDQSQRSAPGVQERRLKRIISHPFFNDSTLDYDIALLELEKPAEYSSMVRPISLPDASHVFPAGKAIWVTGWGHTQYGGTGALILQKGEIRVINQTTCENLLPQLITPRMMCVGFLSGGVDSCVGDSGGPLSSVEADGRIFQAGVVSWGAGCAQRNKPGVYTRLPLFRDWIKENTGV
B6: MTSP-1 I41D/C122S/G151N/Q192T (enzyme)
chain: VVGGTDADEGEWPWQVSLHALGQGHDCGASLISPNWLVSAAHCYIDDRGFRYSDPTQWTAFLGLHDQSQRSAPGVQERRLKRIISHPFFNDFTFDYDIALLELEKPAEYSSMVRPISLPDASHVFPAGKAIWVTGWGHTQYGGTNALILQKGEIRVINQTTCENLLPQQITPRMMCVGFLSGGVDSCTGDSGGPLSSVEADGRIFQAGVVSWGDGCAQRNKPGVYTRLPLFRDWIKENTGV
B7: MTSP-1 protease domain I41G/F97V/F99L/C122S/G151N/Q192T/D217V (enzyme)
chain: VVGGTDADEGEWPWQVSLHALGQGHGCGASLISPNWLVSAAHCYIDDRGFRYSDPTQWTAFLGLHDQSQRSAPGVQERRLKRIISHPFFNDVTLDYDIALLELEKPAEYSSMVRPISLPDASHVFPAGKAIWVTGWGHTQYGGTNALILQKGEIRVINQTTCENLLPQQITPRMMCVGFLSGGVDSCTGDSGGPLSSVEADGRIFQAGVVSWGVGCAQRNKPGVYTRLPLFRDWIKENTGV
B8: MTSP-1 protease domain I41D/F97T/F99L/C122S/G151N/Q175S/Q192T (enzyme)
chain: VVGGTDADEGEWPWQVSLHALGQGHDCGASLISPNWLVSAAHCYIDDRGFRYSDPTQWTAFLGLHDQSQRSAPGVQERRLKRIISHPFFNDTTLDYDIALLELEKPAEYSSMVRPISLPDASHVFPAGKAIWVTGWGHTQYGGTNALILQKGEIRVINQTTCENLLPQSITPRMMCVGFLSGGVDSCTGDSGGPLSSVEADGRIFQAGVVSWGDGCAQRNKPGVYTRLPLFRDWIKENTGV
B9: MTSP-1 protease domain I41D/F99L/C122S/G151N/Q192T/D217A (enzyme)
chain: VVGGTDADEGEWPWQVSLHALGQGHDCGASLISPNWLVSAAHCYIDDRGFRYSDPTQWTAFLGLHDQSQRSAPGVQERRLKRIISHPFFNDFTLDYDIALLELEKPAEYSSMVRPISLPDASHVFPAGKAIWVTGWGHTQYGGTNALILQKGEIRVINQTTCENLLPQQITPRMMCVGFLSGGVDSCTGDSGGPLSSVEADGRIFQAGVVSWGAGCAQRNKPGVYTRLPLFRDWIKENTGV
B10: MTSP-1 protease domain I41D/F97T/F99L/C122S/G151N/Q175S/D217A (enzyme)
chain: VVGGTDADEGEWPWQVSLHALGQGHDCGASLISPNWLVSAAHCYIDDRGFRYSDPTQWTAFLGLHDQSQRSAPGVQERRLKRIISHPFFNDTTLDYDIALLELEKPAEYSSMVRPISLPDASHVFPAGKAIWVTGWGHTQYGGTNALILQKGEIRVINQTTCENLLPQSITPRMMCVGFLSGGVDSCQGDSGGPLSSVEADGRIFQAGVVSWGAGCAQRNKPGVYTRLPLFRDWIKENTGV
B11: MTSP-1 I41S/F99L/C122S/G151N/Q192V (enzyme)
chain: VVGGTDADEGEWPWQVSLHALGQGHSCGASLISPNWLVSAAHCYIDDRGFRYSDPTQWTAFLGLHDQSQRSAPGVQERRLKRIISHPFFNDFTLDYDIALLELEKPAEYSSMVRPISLPDASHVFPAGKAIWVTGWGHTQYGGTNALILQKGEIRVINQTTCENLLPQQITPRMMCVGFLSGGVDSCVGDSGGPLSSVEADGRIFQAGVVSWGDGCAQRNKPGVYTRLPLFRDWIKENTGV
B12: MTSP-1 protease domain I41D/F97T/F99L/C122S/Q175S/Q192T/D217A (enzyme)
chain: VVGGTDADEGEWPWQVSLHALGQGHDCGASLISPNWLVSAAHCYIDDRGFRYSDPTQWTAFLGLHDQSQRSAPGVQERRLKRIISHPFFNDTTLDYDIALLELEKPAEYSSMVRPISLPDASHVFPAGKAIWVTGWGHTQYGGTGALILQKGEIRVINQTTCENLLPQSITPRMMCVGFLSGGVDSCTGDSGGPLSSVEADGRIFQAGVVSWGAGCAQRNKPGVYTRLPLFRDWIKENTGV
B13: MTSP-1 protease domain I41D/F97T/F99L/C122S/G151N/Q192T/D217A (enzyme)
chain: VVGGTDADEGEWPWQVSLHALGQGHDCGASLISPNWLVSAAHCYIDDRGFRYSDPTQWTAFLGLHDQSQRSAPGVQERRLKRIISHPFFNDTTLDYDIALLELEKPAEYSSMVRPISLPDASHVFPAGKAIWVTGWGHTQYGGTNALILQKGEIRVINQTTCENLLPQQITPRMMCVGFLSGGVDSCTGDSGGPLSSVEADGRIFQAGVVSWGAGCAQRNKPGVYTRLPLFRDWIKENTGV
B14: MTSP-1 protease domain F97L/F99L/C122S/Q175K/Q192V/D217M (enzyme)
chain: VVGGTDADEGEWPWQVSLHALGQGHICGASLISPNWLVSAAHCYIDDRGFRYSDPTQWTAFLGLHDQSQRSAPGVQERRLKRIISHPFFNDLTLDYDIALLELEKPAEYSSMVRPISLPDASHVFPAGKAIWVTGWGHTQYGGTGALILQKGEIRVINQTTCENLLPQKITPRMMCVGFLSGGVDSCVGDSGGPLSSVEADGRIFQAGVVSWGMGCAQRNKPGVYTRLPLFRDWIKENTGV
B15: MTSP-1 protease domain I41G/F97A/F99L/C122S/G151N/Q175M/Q192S (enzyme)
chain: VVGGTDADEGEWPWQVSLHALGQGHGCGASLISPNWLVSAAHCYIDDRGFRYSDPTQWTAFLGLHDQSQRSAPGVQERRLKRIISHPFFNDATLDYDIALLELEKPAEYSSMVRPISLPDASHVFPAGKAIWVTGWGHTQYGGTNALILQKGEIRVINQTTCENLLPQMITPRMMCVGFLSGGVDSCSGDSGGPLSSVEADGRIFQAGVVSWGDGCAQRNKPGVYTRLPLFRDWIKENTGV
B16: MTSP-1 protease domain F97T/F99L/C122S/G151N/Q175S/Q192T/D217A (enzyme)
chain: VVGGTDADEGEWPWQVSLHALGQGHICGASLISPNWLVSAAHCYIDDRGFRYSDPTQWTAFLGLHDQSQRSAPGVQERRLKRIISHPFFNDTTLDYDIALLELEKPAEYSSMVRPISLPDASHVFPAGKAIWVTGWGHTQYGGTNALILQKGEIRVINQTTCENLLPQSITPRMMCVGFLSGGVDSCTGDSGGPLSSVEADGRIFQAGVVSWGAGCAQRNKPGVYTRLPLFRDWIKENTGV
B17: MTSP-1 protease domain I41S/F97Q/F99L/C122S/Q175W/Q192V/D217R (enzyme)
chain: VVGGTDADEGEWPWQVSLHALGQGHSCGASLISPNWLVSAAHCYIDDRGFRYSDPTQWTAFLGLHDQSQRSAPGVQERRLKRIISHPFFNDQTLDYDIALLELEKPAEYSSMVRPISLPDASHVFPAGKAIWVTGWGHTQYGGTGALILQKGEIRVINQTTCENLLPQWITPRMMCVGFLSGGVDSCVGDSGGPLSSVEADGRIFQAGVVSWGRGCAQRNKPGVYTRLPLFRDWIKENTGV
B18: MTSP-1 protease domain I41D/F99L/C122S/G151N/Q175S/Q192T (enzyme)
chain: VVGGTDADEGEWPWQVSLHALGQGHDCGASLISPNWLVSAAHCYIDDRGFRYSDPTQWTAFLGLHDQSQRSAPGVQERRLKRIISHPFFNDFTLDYDIALLELEKPAEYSSMVRPISLPDASHVFPAGKAIWVTGWGHTQYGGTNALILQKGEIRVINQTTCENLLPQSITPRMMCVGFLSGGVDSCTGDSGGPLSSVEADGRIFQAGVVSWGDGCAQRNKPGVYTRLPLFRDWIKENTGV
B19: MTSP-1 protease domain F97E/F99L/C122S/G151A/Q192V (enzyme)
chain: VVGGTDADEGEWPWQVSLHALGQGHICGASLISPNWLVSAAHCYIDDRGFRYSDPTQWTAFLGLHDQSQRSAPGVQERRLKRIISHPFFNDETLDYDIALLELEKPAEYSSMVRPISLPDASHVFPAGKAIWVTGWGHTQYGGTAALILQKGEIRVINQTTCENLLPQQITPRMMCVGFLSGGVDSCVGDSGGPLSSVEADGRIFQAGVVSWGDGCAQRNKPGVYTRLPLFRDWIKENTGV
B20: MTSP-1 protease domain F97R/ins97aI/T98P/C122S/Q175M/Q192V/D217I (enzyme)
chain: VVGGTDADEGEWPWQVSLHALGQGHICGASLISPNWLVSAAHCYIDDRGFRYSDPTQWTAFLGLHDQSQRSAPGVQERRLKRIISHPFFNDRIPFDYDIALLELEKPAEYSSMVRPISLPDASHVFPAGKAIWVTGWGHTQYGGTGALILQKGEIRVINQTTCENLLPQMITPRMMCVGFLSGGVDSCVGDSGGPLSSVEADGRIFQAGVVSWGIGCAQRNKPGVYTRLPLFRDWIKENTGV

Sequence of plasma purified human complement protein C3 (human) (P01024 23-667, chain 1 of 2): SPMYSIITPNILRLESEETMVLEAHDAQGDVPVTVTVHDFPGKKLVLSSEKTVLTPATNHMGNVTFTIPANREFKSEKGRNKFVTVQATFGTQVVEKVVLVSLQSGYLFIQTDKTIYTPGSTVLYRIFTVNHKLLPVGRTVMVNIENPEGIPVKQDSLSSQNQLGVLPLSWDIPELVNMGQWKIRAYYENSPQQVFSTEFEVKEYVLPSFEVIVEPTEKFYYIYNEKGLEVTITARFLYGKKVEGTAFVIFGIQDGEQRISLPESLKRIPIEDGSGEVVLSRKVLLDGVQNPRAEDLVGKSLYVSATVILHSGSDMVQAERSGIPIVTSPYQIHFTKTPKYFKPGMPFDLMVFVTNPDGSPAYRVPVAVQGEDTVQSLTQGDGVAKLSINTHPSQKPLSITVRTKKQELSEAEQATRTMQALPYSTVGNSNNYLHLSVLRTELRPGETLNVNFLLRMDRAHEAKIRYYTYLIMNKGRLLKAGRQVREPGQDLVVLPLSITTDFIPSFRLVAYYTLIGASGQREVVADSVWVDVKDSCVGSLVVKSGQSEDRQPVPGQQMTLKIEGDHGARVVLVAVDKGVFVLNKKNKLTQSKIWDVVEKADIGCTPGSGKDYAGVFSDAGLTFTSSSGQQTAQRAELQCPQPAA
Sequence of plasma purified human complement protein C3 (human) (P01024 672-1663, chain 2 of 2): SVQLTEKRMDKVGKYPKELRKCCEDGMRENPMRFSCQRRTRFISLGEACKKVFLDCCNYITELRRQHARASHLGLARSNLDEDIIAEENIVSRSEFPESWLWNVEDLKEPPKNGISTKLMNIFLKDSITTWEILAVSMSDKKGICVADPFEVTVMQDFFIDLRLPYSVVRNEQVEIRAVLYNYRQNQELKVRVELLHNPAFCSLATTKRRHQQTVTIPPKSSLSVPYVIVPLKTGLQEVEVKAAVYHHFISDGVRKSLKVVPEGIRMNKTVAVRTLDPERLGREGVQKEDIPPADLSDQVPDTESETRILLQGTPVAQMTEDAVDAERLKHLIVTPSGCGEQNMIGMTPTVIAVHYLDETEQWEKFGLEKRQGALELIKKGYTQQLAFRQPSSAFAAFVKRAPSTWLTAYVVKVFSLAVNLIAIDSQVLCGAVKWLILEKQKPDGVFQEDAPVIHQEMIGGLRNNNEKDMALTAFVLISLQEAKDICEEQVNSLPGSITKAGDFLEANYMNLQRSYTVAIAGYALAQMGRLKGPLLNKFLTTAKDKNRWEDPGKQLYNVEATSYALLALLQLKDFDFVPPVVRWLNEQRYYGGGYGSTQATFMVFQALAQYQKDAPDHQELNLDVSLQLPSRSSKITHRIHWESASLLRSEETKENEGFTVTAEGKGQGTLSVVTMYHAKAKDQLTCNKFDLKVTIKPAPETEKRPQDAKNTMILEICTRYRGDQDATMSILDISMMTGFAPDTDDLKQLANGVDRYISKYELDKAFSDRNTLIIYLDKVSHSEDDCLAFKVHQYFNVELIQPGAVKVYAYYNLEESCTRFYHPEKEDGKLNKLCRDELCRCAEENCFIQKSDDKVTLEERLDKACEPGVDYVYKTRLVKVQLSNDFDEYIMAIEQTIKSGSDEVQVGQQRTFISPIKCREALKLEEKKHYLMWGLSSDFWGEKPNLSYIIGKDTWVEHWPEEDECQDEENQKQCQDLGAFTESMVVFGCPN

The assay addresses plasma purified human complement protein C3 (human) (UniProt P01024). Briefly: cell-based or functional assay.
Regarding B1, the EC50 hC3 cleavage was found to be 30.5 nM.
B2 gave an EC50 hC3 cleavage of 7770 nM.
For B3, the EC50 hC3 cleavage stood at 112 nM.
For the molecule B4, the EC50 hC3 cleavage amounted to 5.72 nM.
Still for that read-out and setting: the figure for B5 is 89.9 nM.
In turn, B6 had an EC50 of hC3 cleavage of 85.2 nM.
On to B7, for which the EC50 hC3 cleavage was 30.5 nM.
With B8, the EC50 hC3 cleavage came to 56.7 nM.
Take B9: the EC50 hC3 cleavage came out at 45.1 nM.
For B10, the EC50 hC3 cleavage turned out to be 25.5 nM.
For the molecule B11, the EC50 of hC3 cleavage amounted to 34.4 nM.
For the molecule B12, the EC50 hC3 cleavage was 52.1 nM.
Still for that read-out and setting: as for B13, the figure is 70.4 nM; as for B14, 463 nM; as for B15, 73.1 nM.
As to B16, the EC50 hC3 cleavage was determined as 172 nM.
Still for that read-out and setting: as for B17, the figure is 50.6 nM.
As for B18, the EC50 hC3 cleavage amounted to 28.6 nM.
Still for that read-out and setting: as for B19, the figure is 1040 nM; as for B20, 23.6 nM.
